The assay has as its system rabbit model of thromboembolic stroke. Nature of the assay: Rabbit model of thromboembolic stroke (clot embolization). As to conditions: 16-HETE 1 mg/kg per minute for 1 h from 1 h after embolization; tPA 6.3 mg/kg at 3-5 h; FIG. 3. The class given is in vivo. How it is done: New Zealand rabbits of either sex, weighing 3-4 kilograms were used for the study. Prior to the start of the experiment, the rabbits were divided into three groups, those that were administered both 16-HETE at a rate of 1 mg/kg per minute for one hour and tPA (Genentech, Inc., San Francisco, Calif.) at a concentration of 6.3 mg/kg, tPA alone, or vehicle.
On the day of treatment the animals were fasted for 12 hours with free access to water and then anesthetized with an intramuscular solution of ketamine (50 mg/kg), acepromazine (20 mg) and xylazine (5 mg/kg). This solution was subsequently used to maintain a surgical depth of anesthesia as determined by responses to various physiologic and autonomic stimuli, including mean arterial pressure and response to paw pinch.
The animals were prepared for surgery by introducing femoral venous and arterial catheters (PE50 and 90, respectively; Clay Adams, Parsippany, N.J.). The catheters were placed for subsequent blood sampling, including blood gas and arterial pressure, drug infusions, and fluid replacement.
All animals were tracheotomized and mechanically ventilated in order to maintain arterial blood gases within a physiologic range. Arterial blood gas measurements (pH, pCO2, pO2) were determined, using a Corning 168 blood gas monitor. […]

Data on one molecule can be found in patent US6903135B2, “Methods and products related to 16-HETE analogs” (Board of Regents, The University of Texas System, priority 1998, dated 2005).

B1: tPA: tissue plasminogen activator, thrombolytic agent (Genentech, Inc.) (protein, UniProt P00750 36-562, looked up)
Tissue-type plasminogen …: SYQVICRDEKTQMIYQQHQSWLRPVLRSNRVEYCWCNSGRAQCHSVPVKSCSEPRCFNGGTCQQALYFSDFVCQCPEGFAGKCCEIDTRATCYEDQGISYRGTWSTAESGAECTNWNSSALAQKPYSGRRPDAIRLGLGNHNYCRNPDRDSKPWCYVFKAGKYSSEFCSTPACSEGNSDCYFGNGSAYRGTHSLTESGASCLPWNSMILIGKVYTAQNPSAQALGLGKHNYCRNPDGDAKPWCHVLKNRRLTWEYCDVPSCSTCGLRQYSQPQFRIKGGLFADIASHPWQAAIFAKHRRSPGERFLCGGILISSCWILSAAHCFQERFPPHHLTVILGRTYRVVPGEEEQKFEVEKYIVHKEFDDDTYDNDIALLQLKSDSSRCAQESSVVRTVCLPPADLQLPDWTECELSGYGKHEALSPFYSERLKEAHVRLYPSSRCTSQHLLNRTVTDNMLCAGDTRSGGPQANLHDACQGDSGGPLVCLNDGRMTLVGIISWGLGCGQKDVPGVYTKVTNYLDWIRDNMRP
Regarding B1, the brain infarct size result is reported as “significantly larger”.
